Assay results: patent publication US6964763

Biological target: Recombinant baculovirus-expressed HIV-1 gp120 derived from the LAV isolate (HIV-1 isolate LAV (LAI)), P03377
Experiment: competition: 125I-CD4 on immobilized gp120, 10-fold molar excess of peptide; isolate (MN or LAI) not stated

## CSVTCG (modifications not checked) [CSVTCG peptide derived from TSP1 properdin-like Type 1 repeat]
  % inhibition: 53%
